Experiments:
Assay type in all cases: biochemical
[1] = homoserine transaminase activity, coupled dehydrogenase assay; settings: measured at 50 mM homoserine; 2-oxoglutarate as acceptor
Protocol: (§1) Enzymatic assays: Transaminase activity of several candidate aminotransferases was quantified with 2-oxoglutarate as the amino group acceptor. Transaminase reactions were carried out using homoserine and the preferred amino acid of the enzymes. The reactions were followed by the amino acid-dependent oxidation of NADH in the coupled dehydrogenase reaction.
(§2) Transaminase Assays (Reaction Scheme)
(§3) Transaminase: Amino acid+2-oxoglutarate→2-oxo-acid+glutamate
(§4) Dehydrogenase: 2-oxo-acid+NADH→2-hydroxy-acid+NAD^+
The reaction mixture contained 60 mM Hepes (pH 7), 50 mM potassium chloride, 5 mM MgCl2, 4 mM 2-oxoglutarate, 0.1 mM pyridoxal-5′-phosphate (PLP), 0.25 mM NADH, (optionally 5 mM fructose-1,6-bisphosphate) (all products from Sigma), 4 Units/mL of auxiliary 2-hydroxyacid dehydrogenase, and appropriate amounts of purified aminotransferase or cell extract. The auxiliary dehydrogenase enzyme was purified PanE from L. lactis in case of the amino acids phenylalanine and leucine (Chambellon, Rijnen, Lorquet, Gitton, van HylckamaVlieg, Wouters, & Yvon, 2009), malate dehydrogenase (Sigma) in case of aspartate, and rabbit muscle (L)-lactate dehydrogenase (Sigma) when homoserine was used as the starting substrate. Reactions were started by adding 50 mM of the amino acid.
(§5) Enzymatic assays were carried out at 37° C. in 96-well flat bottomed microtiter plates in a final volume of 250 μL. The reactions were followed by the characteristic absorption of NAD(P)H at 340 nm (εNADPH=6.22 mM^−1 cm^−1) in a microplate reader (BioRad 680XR).

[2] = transaminase activity on preferred amino acid (L), coupled dehydrogenase assay; settings: superscript (L); 50 mM amino acid; 2-oxoglutarate as acceptor
Protocol: as §1, §2, §3, §4
(§6) The reaction mixture contained 60 mM Hepes (pH 7), 50 mM potassium chloride, 5 mM MgCl2, 4 mM 2-oxoglutarate, 0.1 mM pyridoxal-5′-phosphate (PLP), 0.25 mM NADH, (optionally 5 mM fructose-1,6-bisphosphate) (all products from Sigma), 4 Units/mL of auxiliary 2-hydroxyacid dehydrogenase, and appropriate amounts of purified aminotransferase or cell extract. […]
as §5

[3] = transaminase activity on preferred amino acid (A), coupled dehydrogenase assay; settings: superscript (A); 50 mM amino acid; 2-oxoglutarate as acceptor
Protocol: as §1, §2, §3, §4, §6, §5

[4] = OHB reductase activity, NADH absorption at 340 nm; settings: L. lactis Ll-LdhA mutants
Protocol: (§7) Enzymatic assays: The reaction mixture contained 60 mM Hepes (pH 7), 50 mM potassium chloride, 5 mM MgCl2, 0.25 mM NADH, (optionally 5 mM fructose-1,6-bisphosphate) (all products from Sigma), and appropriate amounts of purified malate or lactate dehydrogenase or cell extract. Reactions were started by adding appropriate amounts of 2-oxo-4-hydroxybutyrate (OHB), pyruvate, or oxaloacetate (OAA). Enzymatic assays were carried out at 37° C. in 96-well flat bottomed microtiter plates in a final volume of 250 μL. The reactions were followed by the characteristic absorption of NADH at 340 nm (εNADH=6.22 mM^−1 cm^−1) in a microplate reader (BioRad 680XR).
OHB was synthesized by incubating 125 mM homoserine with snake venom (L)-amino acid oxidase (1.25 U/mL, Sigma) and catalase (4400 U/mL, Sigma) in 100 mM Tris buffer at pH 7.8 for 90 min at 37° C. Subsequently, the reaction mixture was purified on an Amicon™ Ultra centrifugal filter with a cut-off of 10 kDa to eliminate the enzymes (method adapted from Wellner & Lichtenberg, 1971).
OHB was quantified by mixing 100 μL of the tested solution with 1 mL of a solution containing 1 M sodium arsenate and 1 M boric acid at pH 6.5. The mixture was incubated at room temperature for 30 min and the absorbance at 325 nm was used to quantify OHB. The relation between absorbance and concentration of the ketone was calibrated using pyruvate solutions of known concentrations (method adapted from (Wellner & Lichtenberg, 1971)). The typical OHB yield of the method was 90%.

[5] = pyruvate reductase activity, NADH absorption at 340 nm; settings: L. lactis Ll-LdhA mutants
Protocol: as §7

| Molecule | Max. specific activity on Homoserine [1] | other results |
| --- | --- | --- |
| Ll-AraT: aromatic-amino-acid transaminase from L. lactis, SEQ ID No. 66 (protein, listed as Lactococcus lactis) MDLLKKFNPNLDKIEISLIRQFDQQVSSIPDVIKLTLGEPDFYTPEHVKQAGIVAIENNQSHYTGMAGLLELRQAASEFMNKKYGLSYAAEDEILVTVGVTEAISSVLLSILVAGDEVLIPAPAYPGYEPLITLAGGSLVEIDTRANDFVLTPEMLEQAIVEREGKVKAVILNYPANPTGVTYNRGQIKALAEVLKKHEVFVIADEVYSELNYTDQPHVSIAEYAPEQTIVLNGLSKSHAMTGWRIGLIFAARELVAQIIKTHQYLVTSASTQSQFAAIEALKNGAYDALPMKKEYLKRRDYIIEKMSDLGFKIIEPDGAFYIFAKIPADLEQDSFKFAVDFAKENAVAIIPGIAFGQYGEGFVRLSYAASMDMIEQAMARLTDYVTKKRG | 0.109 μmol/(min mgprot) | – |
| Ll-BcaT: branched-chain-amino-acid transaminase from Lactococcus lactis, SEQ ID No. 68 (protein, listed as Lactococcus lactis) MAINLDWENLGFSYRNLPFRYIARFKDGKWSAGELTGDNQLHISESSPALHYGQQGFEGLKAYRTKDGSIQLFRPDQNAARLQNTARRLCMAEVPTEMFIDAVKQVVKANEDFVPPYGTGATLYLRPLLIGVGDVIGVKPADEYIFTVFAMPVGSYFKGGLAPSKFVISRDYDRAAPLGTGGAKVGGNYAASLQAEVGAKASGYADAIYLDPSTHTKIEEVGAANFFGITADNEFITPLSPSILPSITKYSLLYLAEHRLGLKAIEGEVYAKDLGKFVEAGACGTAAIISPIGRIDDGEDSYIFHSETEVGPTVKRLYDELVGIQFGDVEAPEGWIVKVD | 0.028 μmol/(min mgprot) | Max. specific activity on preferred amino acid (L) [2]: 30.39^(L) μmol/(min mgprot) |
| Ec-AspC: aspartate transaminase from E. coli, SEQ ID No. 64 (protein, listed as Escherichia coli) MFENITAAPADPILGLADLFRADERPGKINLGIGVYKDETGKTPVLTSVKKAEQYLLENETTKNYLGIDGIPEFGRCTQELLFGKGSALINDKRARTAQTPGGTGALRVAADFLAKNTSVKRVWVSNPSWPNHKSVFNSAGLEVREYAYYDAENHTLDFDALINSLNEAQAGDVVLFHGCCHNPTGIDPTLEQWQTLAQLSVEKGWLPLFDFAYQGFARGLEEDAEGLRAFAAMHKELIVASSYSKNFGLYNERVGACTLVAADSETVDRAFSQMKAAIRANYSNPPAHGASVVATILSNDALRAIWEQELTDMRQRIQRMRQLFVNTLQEKGANRDFSFIIKQNGMFSFSGLTKEQVLRLREEFGVYAVASGRVNVAGMTPDNMAPLCEAIVAVL | 0.082 μmol/(min mgprot) | Max. specific activity on preferred amino acid (A) [3]: 74.031^(A) μmol/(min mgprot) |
| Ec-IlvE: branched-chain-amino-acid transaminase from Escherichia coli, SEQ ID No. 60 (protein, listed as Escherichia coli) MTTKKADYIWFNGEMVRWEDAKVHVMSHALHYGTSVFEGIRCYDSHKGPVVFRHREHMQRLHDSAKIYRFPVSQSIDELMEACRDVIRKNNLTSAYIRPLIFVGDVGMGVNPPAGYSTDVIIAAFPWGAYLGAEALEQGIDAMVSSWNRAAPNTIPTAAKAGGNYLSSLLVGSEARRHGYQEGIALDVNGYISEGAGENLFEVKDGVLFTPPFTSSALPGITRDAIIKLAKELGIEVREQVLSRESLYLADEVFMSGTAAEITPVRSVDGIQVGEGRCGPVTKRIQQAFFGLFTGETEDKWGWLDQVNQ | 0.077 μmol/(min mgprot) | Max. specific activity on preferred amino acid (L) [2]: 10.3^(L) μmol/(min mgprot) |
| Q85NI226V: L. lactis lactate dehydrogenase A, Ll-LdhA, mutant Q85N I226V, SEQ ID No. 32 (protein, listed as Lactococcus lactis) MADKQRKKVILVGDGAVGSSYAFALVNQGIAQELGIVDLFKEKTQGDAEDLSHALAFTSPKKIYSADYSDASDADLVVLTSGAPNKPGETRLDLVEKNLRITKDVVTKIVASGFKGIFLVAANPVDILTYATWKFSGFPKNRVVGSGTSLDTARFRQALAEKVDVDARSIHAYIMGEHGDSEFAVWSHANVAGVKLEQWFQENDYLNEAEIVELFESVRDAAYSIVAKKGATFYGVAVALARITKAILDDEHAVLPVSVFQDGQYGVSDCYLGQPAVVGAEGVVNPIHIPLNDAEMQKMEASGAQLKAIIDEAFAKEEFASAVKN | – | Max. specific activity, OHB [4]: 4.9 µmol/mg/min; Max. specific activity, Pyruvate [5]: 11.5 µmol/mg/min |
| Sc-ARO8: aromatic-amino-acid transaminase from Saccharomyces cerevisiae, SEQ ID No. 70 (protein, listed as Saccharomyces cerevisiae) MTLPESKDFSYLFSDETNARKPSPLKTCIHLFQDPNIIFLGGGLPLKDYFPWDNLSVDSPKPPFPQGIGAPIDEQNCIKYTVNKDYADKSANPSNDIPLSRALQYGFSAGQPELLNFIRDHTKIIHDLKYKDWDVLATAGNTNAWESTLRVFCNRGDVILVEAHSFSSSLASAEAQGVITFPVPIDADGIIPEKLAKVMENWTPGAPKPKLLYTIPTGQNPTGTSIADHRKEAIYKIAQKYDFLIVEDEPYYFLQMNPYIKDLKEREKAQSSPKQDHDEFLKSLANTFLSLDTEGRVIRMDSFSKVLAPGTRLGWITGSSKILKPYLSLHEMTIQAPAGFTQVLVNATLSRWGQKGYLDWLLGLRHEYTLKRDCAIDALYKYLPQSDAFVINPPIAGMFFTVNIDASVHPEFKTKYNSDPYQLEQSLYHKVVERGVLVVPGSWFKSEGETEPPQPAESKEVSNPNIIFFRGTYAAVSPEKLTEGLKRLGDTLYEEFGISK | 0.076 μmol/(min mgprot) | – |
| Ec-TyrB: aromatic-amino-acid transaminase from E. coli, SEQ ID No. 62 (protein, listed as Escherichia coli) VFQKVDAYAGDPILTLMERFKEDPRSDKVNLSIGLYYNEDGIIPQLQAVAEAEARLNAQPHGASLYLPMEGLNCYRHAIAPLLFGADHPVLKQQRVATIQTLGGSGALKVGADFLKRYFPESGVWVSDPTWENHVAIFAGAGFEVSTYPWYDEATNGVRFNDLLATLKTLPARSIVLLHPCCHNPTGADLTNDQWDAVIEILKARELIPFLDIAYQGFGAGMEEDAYAIRAIASAGLPALVSNSFSKIFSLYGERVGGLSVMCEDAEAAGRVLGQLKATVRRNYSSPPNFGAQVVAAVLNDEALKASWLAEVEEMRTRILAMRQELVKVLSTEMPERNFDYLLNQRGMFSYTGLSAAQVDRLREEFGVYLIASGRMCVAGLNTANVQRVAKAFAAVM | 0.057 μmol/(min mgprot) | – |
